Assay results reported in publication PMC3341524.

Biological target: murine p35-HA alanine/serine-scan mutant A13 (mouse) (UniProt P43431)
Assay: co-IP

B1: murine Ebi3, triple-FLAG tagged (natural protein)
chain: YTETALVALSQPRVQCHASRYPVAVDCSWTPLQAPNSTRSTSFIATYRLGVATQQQSQPCLQRSPQASRCTIPDVHLFSTVPYMLNVTAVHPGGASSSLLAFVAERIIKPDPPEGVRLRTAGQRLQVLWHPPASWPFPDIFSLKYRLRYRRRGASHFRQVGPIEATTFTLRNSKPHAKYCIQVSAQDLTDYGKPSDWSLPGQVESAPHKP
Work on B1 yielded a decrease in IL-35 dimer formation against wild type of 30%.
